*1 amine or outer side, *2 acyl side, *3 side chain or, on linkers, in order; H or OH if unused. Where no end group is shown, it is not given here. [ ]: non-standard residue; d: D form. Sac = acetylated serine, O-acetyl-L-serine, CC(=O)OC[C@H](N[*:1])C(=O)[*:2]
T1: human COX2 (cyclooxygenase 2) protein with acetylated S565 residue (human, UniProt P35354 18-604, acetylated serine at S565)
T1 construct: Endogenous protein in RIPA lysates of human microglia and human PBMCs, and in human brain tissue sections; also called S565 acetylated COX2 protein; acetylated COX2 protein
T1 sequence: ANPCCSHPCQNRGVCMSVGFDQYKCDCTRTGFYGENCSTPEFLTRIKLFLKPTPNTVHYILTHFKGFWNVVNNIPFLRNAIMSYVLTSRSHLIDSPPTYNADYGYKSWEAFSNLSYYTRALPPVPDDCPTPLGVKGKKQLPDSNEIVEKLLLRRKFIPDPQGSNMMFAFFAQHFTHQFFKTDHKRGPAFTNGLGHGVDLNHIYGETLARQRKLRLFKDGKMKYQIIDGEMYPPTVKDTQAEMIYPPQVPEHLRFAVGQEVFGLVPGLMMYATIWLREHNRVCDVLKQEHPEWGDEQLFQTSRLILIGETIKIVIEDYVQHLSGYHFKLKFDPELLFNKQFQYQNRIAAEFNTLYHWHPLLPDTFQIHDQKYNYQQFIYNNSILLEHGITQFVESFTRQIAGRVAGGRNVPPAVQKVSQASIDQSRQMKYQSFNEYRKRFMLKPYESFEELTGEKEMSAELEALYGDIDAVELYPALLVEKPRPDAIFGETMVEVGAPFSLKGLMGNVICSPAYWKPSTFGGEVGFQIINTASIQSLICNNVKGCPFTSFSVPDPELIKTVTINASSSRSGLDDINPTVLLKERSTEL

T2: acetylated peptide PFTSacFSVPDPELI (SEQ ID NO: 3) including acetylated S565 residue of COX2 (human)
T2 peptide: PFT[Sac]FSVPDPELI

T3: acetylated peptide GCPFTSacFSVPD (SEQ ID NO: 4) including acetylated S565 residue of COX2 (human)
T3 peptide: GCPFT[Sac]FSVPD

B1: monoclonal antibody 9F7-2 (antibody, V domains shown)
VH: QVQLQQSGAELVRPGTSVKISCKASGYTFTDYLLGWVKQRPGHGLEWIGDIYPGGTYIKYNEKFKGKATLTADTSSSTAYMQLSSLTSEDSAVYFCARGRNDEKGDYWGQGTSVTVSS
VL: DVLMTQTPLSLPVSLGDQASISCRSSQSIVHRNGFTYLEWYLQKPGQSPKLLIYQVSNRFSGVPDRFSGSGSGTDFTLKISRVEAEDLGVYYCFQGSHVPPTFGGGTKLEIK
notes: Clones were screened for IgG expression; the isotype and constant regions are not
B2: monoclonal antibody 44C7C8 (antibody, V domains shown)
VH: DVQLQESGPGLVKPSQSLSLTCSVTGYSITSGYYWNWIRQFPGNKLEWMGYISYDGSNNYNPSLKNRISITRDTYKKQFFLKLNSVTTEDTATYYCARGADYYGNTYFYFDVWGAGTTVTVSS
VL: DIVMSQSPSSLAVSVEEKVNMSCKSSQSLLYSRNQKNYLAWYQQKPGQSPKLLIYWASTRESGVPDRFTGSGAGTDFTLTISSVKAEDLAVYYCQQYYTYPFTFGSGTKLEIK
notes: the isotype and constant regions are not; The methods call it 44C7F5 or 44C75F and the results call it 44C7C8; also called 44C7F5; 44C75F

Columns and labels:
[1] = target: T1, human COX2 (cyclooxygenase 2) protein …; test: sandwich ELISA on human microglia lysates, plate coated with 9F7-2
[2] = target: T2, acetylated peptide PFTSacFSVPDPELI (SEQ …); test: ELISA, 96-well plate coated with 9F7-2, peptide captured, biotinylated COX2 antibody detection
[3] = target: T1, human COX2 (cyclooxygenase 2) protein …; test: sandwich ELISA on human PBMC lysates, plate coated with 44C7C8
Experimental: The sample preparation was performed according to the following procedure. After collecting mouse and human blood, the blood was transferred to a heparin tube and reacted for 30 minutes. The reacted blood was placed on the same amount of Histopaque (sigma, 10771) and centrifuged (400 g, 30 minutes). After centrifugation, a middle PBMC layer was separated and washed. After washing, the PBMCs were lysed by adding an RIPA solution (Cell signaling, 9806S), and then the cell lysate was centrifuged (13,000×g, 10 minutes) to obtain a supernatant, and then the amount of protein was quantified and ELISA assay was performed using 100 μg/ml of protein.
After the plate was washed with PBS/Tween, 300 μl/well of a blocking solution was applied at RT for 1 hour. 50 μl of a PBMC sample (100 μg/ml) was treated and incubated at RT for 2 hours. […] After the final washing, the detection was performed with TMB (3-3′,5,5′-tetramethylbenzidine) ([…] substrate for HRP) and the plate was read at 405 nm using an ELISA plate reader. A standard curve was obtained by step-diluting the peptide (500 μg/ml) of SEQ ID NO: 3 or SEQ ID NO: 4, and the amount of COX2 protein acetylated in S565 residue was calculated by substituting an optical density (O.D.) value obtained from the sample to the Standard curve.

[4] = target: T3, acetylated peptide GCPFTSacFSVPD (SEQ …); test: ELISA, plate coated with antibody, peptide captured, biotinylated COX2 antibody detection

Binder | binding result [1] | binding result [2] | binding result [3] | binding result [4]
B1 | binds | binds |  | 
B2 |  |  | binds | binds

Source: US20230125690A1 (KYUNGPOOK NATIONAL UNIVERSITY INDUSTRY ACADEMIC COOPERATION …, published 2023)
